Consider one molecule from patent US8168591 (University of California, dated 2012).

The target in this experiment is T1, recombinant soluble integrin αvβ3 (UniProt P06756 31-992; P05106 27-718).
T1 construct: extracellular domain; 'extracellular domain' is my reading of that; Made in CHO K1 cells and purified on Ni-NTA; The docking simulation used PDB 1L5G; also called soluble αvβ3
Briefly: Table 2 grade, αvβ3 binding (ELISA-type assay with soluble αvβ3).

T1 sequence (P06756 31-992, chain 1 of 2): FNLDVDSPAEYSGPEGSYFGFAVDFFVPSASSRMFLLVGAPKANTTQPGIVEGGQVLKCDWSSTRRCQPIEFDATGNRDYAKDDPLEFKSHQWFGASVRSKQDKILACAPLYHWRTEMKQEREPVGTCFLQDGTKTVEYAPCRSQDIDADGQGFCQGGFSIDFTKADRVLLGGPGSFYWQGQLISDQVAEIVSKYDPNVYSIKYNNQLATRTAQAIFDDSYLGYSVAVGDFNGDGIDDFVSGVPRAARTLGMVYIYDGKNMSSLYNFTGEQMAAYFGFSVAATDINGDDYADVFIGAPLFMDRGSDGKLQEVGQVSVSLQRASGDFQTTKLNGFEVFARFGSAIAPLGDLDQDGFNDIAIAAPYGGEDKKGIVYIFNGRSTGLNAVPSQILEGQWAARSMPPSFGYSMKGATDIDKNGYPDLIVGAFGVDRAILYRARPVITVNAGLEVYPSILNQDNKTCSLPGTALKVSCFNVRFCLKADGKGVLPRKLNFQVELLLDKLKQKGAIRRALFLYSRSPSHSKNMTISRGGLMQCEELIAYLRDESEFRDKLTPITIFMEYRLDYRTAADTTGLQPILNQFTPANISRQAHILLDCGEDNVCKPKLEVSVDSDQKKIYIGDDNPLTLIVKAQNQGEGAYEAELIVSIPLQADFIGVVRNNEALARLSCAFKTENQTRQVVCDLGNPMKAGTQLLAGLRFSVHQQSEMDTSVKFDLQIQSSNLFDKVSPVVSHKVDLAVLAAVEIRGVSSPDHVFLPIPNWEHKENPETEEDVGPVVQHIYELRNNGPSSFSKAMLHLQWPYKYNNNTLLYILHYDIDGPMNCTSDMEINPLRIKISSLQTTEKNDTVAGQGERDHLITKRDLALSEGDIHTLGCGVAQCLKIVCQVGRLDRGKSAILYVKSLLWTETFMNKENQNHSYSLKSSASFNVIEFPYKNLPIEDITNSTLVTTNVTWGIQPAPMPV
T1 sequence (P05106 27-718, chain 2 of 2): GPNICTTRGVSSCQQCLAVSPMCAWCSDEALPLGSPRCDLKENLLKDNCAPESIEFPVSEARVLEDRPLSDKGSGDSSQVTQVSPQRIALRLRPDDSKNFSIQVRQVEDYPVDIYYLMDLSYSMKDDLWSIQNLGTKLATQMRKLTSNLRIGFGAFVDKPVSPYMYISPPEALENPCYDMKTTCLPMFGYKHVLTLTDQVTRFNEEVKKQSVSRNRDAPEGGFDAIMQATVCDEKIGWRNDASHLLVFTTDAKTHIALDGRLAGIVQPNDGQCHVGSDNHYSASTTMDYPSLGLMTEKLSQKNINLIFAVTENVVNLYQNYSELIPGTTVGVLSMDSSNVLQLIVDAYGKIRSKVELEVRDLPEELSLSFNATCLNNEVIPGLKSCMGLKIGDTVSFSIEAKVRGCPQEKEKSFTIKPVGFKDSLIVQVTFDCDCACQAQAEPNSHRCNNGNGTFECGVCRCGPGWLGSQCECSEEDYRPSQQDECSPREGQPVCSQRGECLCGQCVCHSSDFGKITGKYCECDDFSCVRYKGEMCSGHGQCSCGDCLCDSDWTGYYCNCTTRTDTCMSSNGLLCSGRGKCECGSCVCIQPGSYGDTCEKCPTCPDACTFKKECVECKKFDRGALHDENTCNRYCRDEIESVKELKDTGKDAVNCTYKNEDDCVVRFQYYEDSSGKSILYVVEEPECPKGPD

B1: FGF-1 Glu102/Tyr109/Asn110 to Ala mutant (3×A) (ligand)
chain: FNLPPGNYKKPKLLYCSNGGHFLRILPDGTVDGTRDRSDQHIQLQLSAESVGEVYIKSTETGQYLAMDTDGLLYGSQTPNEECLFLARLEENHAATYISKKHAEKNWFVGLKKNGSCKRGPRTHYGQKAILFLPLPVSSD
notes: also called 3xA; E1 02A/Y109A/Q110A
As to B1, the binding result is “binds”.
